Measured values published in PMC6202311, “Substrate Recognition and Autoinhibition in the Central Ribonuclease RNase E”.

Molecular target: RNase E NTD D303R D346R (Escherichia coli, UniProt P21513 1-529, D303R;D346R)
Test: crystal structure (3.0 A); Mg2+, Zn2+; BLI: 25 mM HEPES pH 7.0, 150 mM NaCl, 100 mM KCl, 10 mM CaCl2, 0.5 mM TCEP; RNA immobilised on streptavidin sensors, protein 0-500 nM; temperature not stated
Details: protein: recombinant; tags: N-terminal His; chain copies: 4; hairpin, 3' single-stranded tail

GUUAUAUGCCUUCUUGGAGGUAUAUAACAAAGAC (structured_RNA, 5' monophosphate; 2'-O-methyl on A33 and C34 (ompD +82, +83)) [MicC-ompD fusion]
binding result: binds
